According to patent US20250382388A1 (ARGENX, published 2025):

Key:
[1] = biological target: T1, FcRn-L322A/L323A expressed in HEK293 cells (UniProt P55899 24-365); assay: cell FcRn occupancy, flow cytometry, free FcRn stained with anti-FcRn-Fab AF647, HEK293-FcRn-L322A/L323A cells, with HSA
[2] = biological target: T1, FcRn-L322A/L323A expressed in HEK293 …; assay: cell FcRn occupancy, flow cytometry, free FcRn stained with anti-FcRn-Fab AF647, HEK293-FcRn-L322A/L323A cells, without HSA
human serum albumin [3] = biological target: T2, human serum albumin (human, UniProt P02768 25-609); assay: SPR Biacore 3000, HSA on chip, pH 7.4
T2 construct: Immobilised on SPR chips; also added in solution to the cell assays; also called HSA; humanSA

human serum albumin [4] = biological target: T2, human serum albumin; assay: SPR Biacore 3000, HSA on chip, pH 5.5
human serum albumin [5] = biological target: T2, human serum albumin; assay: SPR Biacore 3000, HSA on chip, ratio of R0 at pH 5.5 to pH 7.4
human serum albumin [6] = biological target: T2, human serum albumin; assay: SPR, pH 5.5; pH 5.5
human serum albumin [7] = biological target: T2, human serum albumin; assay: SPR, pH 5.5
human serum albumin [8] = biological target: T2, human serum albumin; assay: SPR, Langmuir 1:1 or steady state model, pH 5.5
human serum albumin [9] = biological target: T2, human serum albumin; assay: SPR, pH 7.4
human serum albumin [10] = biological target: T2, human serum albumin; assay: SPR, Langmuir 1:1 or steady state model, pH 7.4
[11] = biological target: T3, neonatal Fc receptor (FcRn), endogenous in U937 cells (UniProt P55899 24-365; P61769 21-119); assay: cell FcRn occupancy, flow cytometry, free FcRn stained with anti-FcRn-Fab AF647, U937 cells, with HSA
T3 construct: whole, on cells; Free FcRn was stained inside fixed and permeabilised cells
T3 sequence (P55899 24-365 limits assumed, chain 1 of 2): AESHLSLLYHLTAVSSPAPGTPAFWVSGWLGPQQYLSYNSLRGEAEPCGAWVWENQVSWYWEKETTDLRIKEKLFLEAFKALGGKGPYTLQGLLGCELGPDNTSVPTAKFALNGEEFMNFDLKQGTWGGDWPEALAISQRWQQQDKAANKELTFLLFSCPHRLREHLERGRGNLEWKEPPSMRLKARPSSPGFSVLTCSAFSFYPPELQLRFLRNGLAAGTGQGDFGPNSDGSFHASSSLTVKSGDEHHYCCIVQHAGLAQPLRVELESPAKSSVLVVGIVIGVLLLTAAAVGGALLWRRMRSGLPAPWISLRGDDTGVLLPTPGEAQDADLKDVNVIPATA
T3 sequence (P61769 21-119 limits assumed, chain 2 of 2): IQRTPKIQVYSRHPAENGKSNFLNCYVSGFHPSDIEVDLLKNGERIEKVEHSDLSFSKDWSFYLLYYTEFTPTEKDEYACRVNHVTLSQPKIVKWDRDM
Protocol: (§1) Next, FcRn occupancy was tested using a cell-based FcRn occupancy assay in the presence or absence of albumin. Briefly, test articles (Fc-ABDEG-VHH molecules) were pre-incubated with HSA for 30 minutes at 37° C., pH 7.4 in FACS buffer. Cells (HEK FcRn mut or U937) were plated in a 96-well microplate. Cells were incubated with test article for two hours, shaking at 37° C., pH 7.4 in FACS buffer. Plates were then transferred immediately on ice and cells were collected by centrifugation at 4° C. Cells stained for viability in FACS buffer at pH 6 and then fixed/permeabilized in permeabilization buffer at pH 6. […] Cells were analyzed by FACS, ensuring that they are kept on ice until immediately prior to analysis.

[12] = biological target: T3, neonatal Fc receptor (FcRn), endogenous …; assay: cell FcRn occupancy, flow cytometry, free FcRn stained with labelled anti-FcRn Fab, U937 cells, 2,500 nM HSA (SD 1.4)
Protocol: as §1

human serum albumin [13] = biological target: T2, human serum albumin; assay: not stated there (refers to the earlier SPR)

T1 sequence (P55899 24-365 L343A/L344A, chain 1 of 2): as the sequence (P55899 24-365 limits assumed, chain 1 of 2) above, with L320A, L321A counted along it
T1 sequence (chain, as listed by the source L322A L323A, chain 2 of 2): as the sequence (P61769 21-119 limits assumed, chain 2 of 2) above

Binder	% max occupancy [1]	IC50 [1]	IC50 [2]	R0 pH7.4 (human serum albumin [3])	koff (human serum albumin [3])	R0 pH5.5 (human serum albumin [4])	koff (human serum albumin [4])	R0 5.5/7.4 (human serum albumin [5])	also measured
TA-Alb23-Fc-ABDEG (Fc fusion, Alb23 VHH on the N-terminus of both Fc domains; also called two-armed N-terminal anti-HSA-Fc-ABDEG) EVQLLESGGGLVQPGGSLRLSCAASGFTFRSFGMSWVRQAPGKGPEWVSSISGSGSDTLYADSVKGRFTISRDNSKNTLYLQMNSLRPEDTAVYYCTIGGSLSRSSQGTLVTVSSDKTHTCPPCPAPELLGGPSVFLFPPKPKDTLYITREPEVTCVVVDVSHEDPEVKFNWYVDGVEVHNAKTKPREEQYNSTYRVVSVLTVLHQDWLNGKEYKCKVSNKALPAPIEKTISKAKGQPREPQVYTLPPSRDELTKNQVSLTCLVKGFYPSDIAVEWESNGQPENNYKTTPPVLDSDGSFFLYSKLTVDKSRWQQGNVFSCSVMHEALKFHYTQKSLSLSPG	43.4%	78.3 nM	19.9 nM						
TA-Fc-ABDEG-2H11 (2H11 parental fused at the C-terminus of Fc-ABDEG) (Fc fusion) DKTHTCPPCPAPELLGGPSVFLFPPKPKDTLYITREPEVTCVVVDVSHEDPEVKFNWYVDGVEVHNAKTKPREEQYNSTYRVVSVLTVLHQDWLNGKEYKCKVSNKALPAPIEKTISKAKGQPREPQVYTLPPSRDELTKNQVSLTCLVKGFYPSDIAVEWESNGQPENNYKTTPPVLDSDGSFFLYSKLTVDKSRWQQGNVFSCSVMHEALKFHYTQKSLSLSPGGGGGSGGGGSGGGGSGGGGSELQVVESGGGLVQAGGSLRLSCAASGRTFRSNTMGWFRQAPGKEREFVAAITWSGGTTYYADSVKGRFAISGDNAKNTVYLQMNSLKPEDTAVYYCAAEGPKWEPWNGIYHPADFGSWGQGTQVTVSS				115 RU	0.00072 s⁻¹	351 RU	0.00016 s⁻¹	3	
TA-Fc-ABDEG-2H11-v3 (Fc fusion) DKTHTCPPCPAPELLGGPSVFLFPPKPKDTLYITREPEVTCVVVDVSHEDPEVKFNWYVDGVEVHNAKTKPREEQYNSTYRVVSVLTVLHQDWLNGKEYKCKVSNKALPAPIEKTISKAKGQPREPQVYTLPPSRDELTKNQVSLTCLVKGFYPSDIAVEWESNGQPENNYKTTPPVLDSDGSFFLYSKLTVDKSRWQQGNVFSCSVMHEALKFHYTQKSLSLSPGGGGGSGGGGSGGGGSGGGGSELQVVESGGGLVQAGGSLRLSCAASGRTFRSNTMGWFRQAPGKEREFVAAITWSGGTTYYADSVKGRFAISGDNAKNTVYLQMNSLKPEDTAVYYCAAEGAKWEPWNGIYHPADFGSWGQGTQVTVSS				8.24 RU	0.0029 s⁻¹	164 RU	0.000135 s⁻¹	19.9	
TA-Fc-ABDEG-2H11-v16 (Fc fusion, Scaffold as for m24) DKTHTCPPCPAPELLGGPSVFLFPPKPKDTLYITREPEVTCVVVDVSHEDPEVKFNWYVDGVEVHNAKTKPREEQYNSTYRVVSVLTVLHQDWLNGKEYKCKVSNKALPAPIEKTISKAKGQPREPQVYTLPPSRDELTKNQVSLTCLVKGFYPSDIAVEWESNGQPENNYKTTPPVLDSDGSFFLYSKLTVDKSRWQQGNVFSCSVMHEALKFHYTQKSLSLSPGGGGGSGGGGSGGGGSGGGGSELQVVESGGGLVQAGGSLRLSCAASGRTFRSNTMGWFRQAPGKEREFVAAITWSGGTTYYADSVKGRFAISGDNAKNTVYLQMNSLKPEDTAVYYCAAEGPKWEPWNGIYHPADAGSWGQGTQVTVSS				0.571 RU	0.00193 s⁻¹	8.91 RU	0.00301 s⁻¹	16	
TA-Fc-ABDEG-2H11-v12 (Fc fusion, Scaffold as for m24) DKTHTCPPCPAPELLGGPSVFLFPPKPKDTLYITREPEVTCVVVDVSHEDPEVKFNWYVDGVEVHNAKTKPREEQYNSTYRVVSVLTVLHQDWLNGKEYKCKVSNKALPAPIEKTISKAKGQPREPQVYTLPPSRDELTKNQVSLTCLVKGFYPSDIAVEWESNGQPENNYKTTPPVLDSDGSFFLYSKLTVDKSRWQQGNVFSCSVMHEALKFHYTQKSLSLSPGGGGGSGGGGSGGGGSGGGGSELQVVESGGGLVQAGGSLRLSCAASGRTFRSNTMGWFRQAPGKEREFVAAITWSGGTTYYADSVKGRFAISGDNAKNTVYLQMNSLKPEDTAVYYCAAEGPKWEPWNGIAHPADFGSWGQGTQVTVSS				6.32 RU	0.0012 s⁻¹	93.9 RU	9.72e-05 s⁻¹	14.9	
TA-Fc-ABDEG-2H11-v15 (Fc fusion) DKTHTCPPCPAPELLGGPSVFLFPPKPKDTLYITREPEVTCVVVDVSHEDPEVKFNWYVDGVEVHNAKTKPREEQYNSTYRVVSVLTVLHQDWLNGKEYKCKVSNKALPAPIEKTISKAKGQPREPQVYTLPPSRDELTKNQVSLTCLVKGFYPSDIAVEWESNGQPENNYKTTPPVLDSDGSFFLYSKLTVDKSRWQQGNVFSCSVMHEALKFHYTQKSLSLSPGGGGGSGGGGSGGGGSGGGGSELQVVESGGGLVQAGGSLRLSCAASGRTFRSNTMGWFRQAPGKEREFVAAITWSGGTTYYADSVKGRFAISGDNAKNTVYLQMNSLKPEDTAVYYCAAEGPKWEPWNGIYHPAAFGSWGQGTQVTVSS				0.635 RU	0.0025 s⁻¹	235 RU	0.00174 s⁻¹	370	
OA-Fc-ABDEG-Alb23 (Fc fusion, also called OA-Fc-ABDEG-20GS-Alb23; ABDEG-20GS-Alb23) chain 1: DKTHTCPPCPAPELLGGPSVFLFPPKPKDTLYITREPEVTCVVVDVSHEDPEVKFNWYVDGVEVHNAKTKPREEQYNSTYRVVSVLTVLHQDWLNGKEYKCKVSNKALPAPIEKTISKAKGQPREPQVYTLPPSRDELTKNQVSLWCLVKGFYPSDIAVEWESNGQPENNYKTTPPVLDSDGSFFLYSKLTVDKSRWQQGNVFSCSVMHEALKFHYTQKSLSLSPGGGGGSGGGGSGGGGSGGGGSEVQLLESGGGLVQPGGSLRLSCAASGFTFRSFGMSWVRQAPGKGPEWVSSISGSGSDTLYADSVKGRFTISRDNSKNTLYLQMNSLRPEDTAVYYCTIGGSLSRSSQGTLVTVSS chain 2: DKTHTCPPCPAPELLGGPSVFLFPPKPKDTLYITREPEVTCVVVDVSHEDPEVKFNWYVDGVEVHNAKTKPREEQYNSTYRVVSVLTVLHQDWLNGKEYKCKVSNKALPAPIEKTISKAKGQPREPQVYTLPPSRDELTKNQVSLSCAVKGFYPSDIAVEWESNGQPENNYKTTPPVLDSDGSFFLVSKLTVDKSRWQQGNVFSCSVMHEALKFHYTQKSLSLSPG	67.9%	11.5 nM	6.4 nM						kon (human serum albumin [6]): 27900 M⁻¹ s⁻¹; Kd (human serum albumin [7]): 66.5 nM; koff (human serum albumin [7]): 0.00186 s⁻¹; Kd (human serum albumin [8]): 66.5 nM; koff (human serum albumin [8]): 0.00186 s⁻¹; kon (human serum albumin [8]): 27900 M⁻¹ s⁻¹; Kd (human serum albumin [9]): 147 nM; koff (human serum albumin [9]): 0.00336 s⁻¹; kon (human serum albumin [9]): 22900 M⁻¹ s⁻¹; Kd (human serum albumin [10]): 147 nM; koff (human serum albumin [10]): 0.00336 s⁻¹; kon (human serum albumin [10]): 22900 M⁻¹ s⁻¹
TA-Fc-ABDEG-Alb23 (Fc fusion, also called TA-ABDEG-Alb23) DKTHTCPPCPAPELLGGPSVFLFPPKPKDTLYITREPEVTCVVVDVSHEDPEVKFNWYVDGVEVHNAKTKPREEQYNSTYRVVSVLTVLHQDWLNGKEYKCKVSNKALPAPIEKTISKAKGQPREPQVYTLPPSRDELTKNQVSLTCLVKGFYPSDIAVEWESNGQPENNYKTTPPVLDSDGSFFLYSKLTVDKSRWQQGNVFSCSVMHEALKFHYTQKSLSLSPGGGGGSGGGGSGGGGSGGGGSEVQLLESGGGLVQPGGSLRLSCAASGFTFRSFGMSWVRQAPGKGPEWVSSISGSGSDTLYADSVKGRFTISRDNSKNTLYLQMNSLRPEDTAVYYCTIGGSLSRSSQGTLVTVSS	63.8%	33 nM	20.2 nM						
efgartigimod (human IgG1 Fc fragment with ABDEG mutations) (other, residues 1-226 (my count) are the Fc part; also called ARGX-113; efgartigimod alfa) DKTHTCPPCPAPELLGGPSVFLFPPKPKDTLYITREPEVTCVVVDVSHEDPEVKFNWYVDGVEVHNAKTKPREEQYNSTYRVVSVLTVLHQDWLNGKEYKCKVSNKALPAPIEKTISKAKGQPREPQVYTLPPSRDELTKNQVSLTCLVKGFYPSDIAVEWESNGQPENNYKTTPPVLDSDGSFFLYSKLTVDKSRWQQGNVFSCSVMHEALKFHYTQKSLSLSPG	57.7%	16.1 nM	6.8 nM						% max occupancy [11]: 56.8%; IC50 [11]: 4.8 nM; IC50 [12]: 2.9 nM
Alb23 F32A VHH fragment (VHH, also called Alb23-SM) VHH: EVQLLESGGGLVQPGGSLRLSCAASGFTFRSAGMSWVRQAPGKGPEWVSSISGSGSDTLYADSVKGRFTISRDNSKNTLYLQMNSLRPEDTAVYYCTIGGSLSRSSQGTLVTVSS									fold lower affinity against parental Alb23 VHH (human serum albumin [13]): ~300 fold
